± gives the standard error. For some of these results: Fewer inactive variants are shown than the library holds.
B1: glmS ribozyme (parent)
chain: AUAAAAGCGCCAGAACUACAGAAAUGUAGUUGACGAGGAGGAGGUUUAUCGAAUUUUCGGCGGAUGCCUCCAAA

Experiments:
Conditions in all cases: with glucosamine-6-phosphate
glucosamine-6-phosphate [1] = variants of: B1; assay: kcat; higher = faster cleavage; RNA array
Outline: (§1)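 In situ transcription by E. coli RNA polymerase produced barcoded ribozyme variants on sequenced MiSeq chips, and a hybridised Cy3 probe tracked them at 37 °C. Glucosamine-6-phosphate was flowed in at 40 μM to 10 mM in HEPES/KCl/Mg(OAc)2 buffer. kcat and KM were taken from weighted Michaelis–Menten fits of kobs values from exponential decay fits.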

glucosamine-6-phosphate [2] = variants of: B1; assay: KM; higher = weaker cofactor use; RNA array
Outline: as §1

glucosamine-6-phosphate [3] = variants of: B1; assay: self-cleavage kobs at 160 uM GlcN6P; higher = faster cleavage; RNA array
Outline: as §1

glucosamine-6-phosphate [4] = variants of: B1; assay: self-cleavage kobs at 640 uM GlcN6P; higher = faster cleavage; RNA array
Outline: as §1

glucosamine-6-phosphate [5] = variants of: B1; assay: self-cleavage kobs at 2500 uM GlcN6P; higher = faster cleavage; RNA array
Outline: as §1

glucosamine-6-phosphate [6] = variants of: B1; assay: self-cleavage kobs at 10000 uM GlcN6P; higher = faster cleavage; RNA array
Outline: as §1

glucosamine-6-phosphate [7] = variants of: B1; assay: self-cleavage kobs at 40 uM GlcN6P; higher = faster cleavage; RNA array
Outline: as §1

Variant | kcat (glucosamine-6-phosphate [1]) [s⁻¹] | KM (glucosamine-6-phosphate [2]) [mM] | self-cleavage kobs at 160 uM GlcN6P (glucosamine-6-phosphate [3]) [s⁻¹] | self-cleavage kobs at 640 uM GlcN6P (glucosamine-6-phosphate [4]) [s⁻¹] | self-cleavage kobs at 2500 uM GlcN6P (glucosamine-6-phosphate [5]) [s⁻¹] | self-cleavage kobs at 10000 uM GlcN6P (glucosamine-6-phosphate [6]) [s⁻¹] | self-cleavage kobs at 40 uM GlcN6P (glucosamine-6-phosphate [7]) [s⁻¹]
AUAAAAGCGCCAGAACUACAGAAAUGUAGUUAACGAGGAGGAGGUUUAUAGAAUUUUCGGCGGAUGCCUCCAAA [G32A C50A] | < 1e-05 | – | – | – | – | – | –
AUAAAAGCGCCAGAACUACAGAAAUGUAGUGGACGAGGAGGAGGUUUAUCGAAUUUUCGGCGGAGGCCUCCAAA [U31G U65G] | 0.00259 ± 0.00018 | 4.14 ± 0.44 | 9.35e-05 ± 1.7e-05 | 0.000375 ± 5.5e-05 | 0.000924 ± 0.00017 | 0.00184 ± 0.00019 | –
AUAAAAGCGCCAGAACUACAGAAAUGUAGUGGACGAGGAGGAAGUUUAUCGAAUUUUCGGCGGAUGCCUCCAAA [U31G G43A] | 1.25e-05 ± 3.3e-06 | – | – | – | – | – | –
AUAAAAGCGCCAGAACUACAGAAAUGUAGUUAAUGAGGAGGAGGUUUAUCGAAUUUUCGGCGGAUGCCUCCAAA [G32A C34U] | < 1e-05 | – | – | < 1e-05 | – | – | –
AUAAAAGCGCCAGAACUACAGAAAUGUAGUGGACGAGGAGGAGGUUGGUCGAAUUUUCGGCGGAUGCCUCCAAA [U31G U47G A48G] | 1.96e-05 ± 7.2e-06 | – | – | – | – | – | –
AUAAAAGCGCCAGAACUACAGAAAUGUAGUGGACGAGGAGGAGGUUUAUCGAAUUUUCGACGGAUGCCUCCAAA [U31G G60A] | 1.46e-05 ± 6.5e-06 | – | – | – | – | – | –
AUAAAAGCGCCAGAACUACAGAAAUGUAGUUAACGAGGAGGAGGUUUAUCGAUUUUUCGGCGGAUGCCUCCAAA [G32A A53U] | 0.00208 ± 0.00084 | – | 0.000175 ± 3.9e-05 | 0.000595 ± 0.0001 | 0.00067 ± 0.00016 | 0.00228 ± 0.0003 | 3.74e-05 ± 9.9e-06
AUAAAAGCGCCAGAACUACAGAAAUGUAGUGGACGAGGAGGAGGUUUAUCGAAUUUUCAGCGGAUGCCUCCAAA [U31G G59A] | 0.000131 ± 8.6e-06 | – | – | – | – | 4.18e-05 ± 1.3e-05 | < 1e-05
AUAAAAGCGCCAGAACUACAGAAAUGUAGUUAACGAGGAGGGGGUUUAUCGAAUUUUCGGCGGGUGCCUCCAAA [G32A A42G A64G] | 0.00178 ± 0.00063 | – | – | 0.000716 ± 0.00024 | – | 0.0016 ± 0.00039 | 3.12e-05 ± 1.5e-05
AUAAAAGCGCCAGAACUACAGAAAUGUAGUUAACGAGGCGGAGGUUUAUCGAAUUUUCGGCGGAUGCCUCCAAA [G32A A39C] | 0.00032 ± 6.8e-05 | 3.19 ± 1.3 | – | 6.63e-05 ± 1.2e-05 | 0.000114 ± 2.1e-05 | 0.000259 ± 3.2e-05 | –
AUAAAAGCGCCAGAACUACAGAAAUGUAGUGGACGAGGAGGAGGUUUAUCGAAUCUUCGGCGGAUGCCUCCAAA [U31G U55C] | 0.00961 ± 0.0014 | 1.86 ± 0.41 | 0.001 ± 0.00031 | 0.00232 ± 0.00064 | 0.00461 ± 0.0011 | 0.00884 ± 0.0015 | 0.000203 ± 4.2e-05

— the supplement of paper PMC7125110
